# From patent US20240360203A1
# Columns and labels:
# Test in all cases: DELFIA on captured biotin-peptide
# Set-up in all cases: unit not given beside the values
# [1] = molecular target: SARS-CoV-2 spike S2 peptide 1149-1167, biotinylated (SARS-CoV-2)
# [2] = molecular target: SARS-CoV-2 spike S2 peptide 1149-1163, biotinylated (SARS-CoV-2)
# [3] = molecular target: SARS-CoV-2 spike S2 peptide 1141-1155, biotinylated (SARS-CoV-2)
# [4] = molecular target: SARS-CoV-2 spike S2 peptide 1153-1167, biotinylated (SARS-CoV-2)
# [5] = molecular target: SARS-CoV-2 spike S2 peptide 1143-1162, biotinylated (SARS-CoV-2)
# [6] = molecular target: SARS-CoV-2 spike S2 peptide 1145-1159, biotinylated (SARS-CoV-2)
# [7] = molecular target: SARS-CoV-2 spike S2 peptide 1133-1147, biotinylated (SARS-CoV-2)
# [8] = molecular target: SARS-CoV-2 spike S2 peptide 1157-1171, biotinylated (SARS-CoV-2)
# [9] = molecular target: SARS-CoV-2 spike S2 peptide 1137-1151, biotinylated (SARS-CoV-2)
substance,measurement,setting,value
isotype control (palivizumab variable regions expressed as human IgG1 with LS mutation in the Fc region) (antibody),AUC,[1],2600
same,AUC,[2],20500
same,AUC,[3],13300
same,AUC,[4],8120
same,AUC,[5],3110
same,AUC,[6],1520
same,AUC,[7],4060
same,AUC,[8],3110
same,AUC,[9],19300
